Several values for one entry are separate records, joined by “and”; a condition that tells them apart may be missing. Equal entries are not always repeated.
Tests used:
Conditions in all cases: remark: other sources report otherwise
[1] = molecular target: T1, recombinant soluble homotrimeric HA of A/Egypt/3300-NAMRU3/08 (H5N1) (Influenza A virus A/Egypt/3300-NAMRU3/2008 (H5N1)); test: HA microarray, BCC supernatant
[2] = molecular target: T2, recombinant soluble homotrimeric HA of A/Anhui/1/05 (H5N1) (Influenza A virus A/Anhui/1/2005 (H5N1)); test: HA microarray, BCC supernatant
[3] = molecular target: T3, recombinant soluble homotrimeric HA of A/California/4/09 (H1N1) (Influenza A virus A/California/04/2009 (H1N1)); test: HA microarray, BCC supernatant
[4] = molecular target: recombinant soluble homotrimeric HA of A/northern shoveler/California/HKWF115/2007 (H6N1) (Influenza A virus A/northern shoveler/California/HKWF115/2007 (H6N1)); test: HA microarray, BCC supernatant
[5] = molecular target: T4, recombinant soluble homotrimeric HA of A/Wisconsin/67/05 (H3N2) (Influenza A virus A/Wisconsin/67/2005 (H3N2)); test: HA microarray, BCC supernatant
[6] = molecular target: T5, recombinant soluble homotrimeric HA of A/chicken/Vietnam/NCVD-016/08 (H5N1) (Influenza A virus A/chicken/Vietnam/NCVD-016/2008 (H5N1)); test: HA microarray, BCC supernatant
[7] = molecular target: T6, recombinant soluble homotrimeric HA of A/Indonesia/5/05 (H5N1) (Influenza A virus A/Indonesia/5/2005 (H5N1)); test: HA microarray, BCC supernatant
[8] = molecular target: T7, recombinant soluble homotrimeric HA of A/Vietnam/1203/04 (H5N1) (Influenza A virus A/Vietnam/1203/2004 (H5N1)); test: HA microarray, BCC supernatant
[9] = molecular target: T8, recombinant soluble homotrimeric HA of A/duck/Yangzhou/02/2005 (H8N4) (Influenza A virus A/duck/Yangzhou/02/2005 (H8N4)); test: HA microarray, BCC supernatant
[10] = molecular target: T9, recombinant soluble homotrimeric HA of A/Japan/305/57 (H2N2) (Influenza A virus A/Japan/305/1957 (H2N2)); test: HA microarray, BCC supernatant
[11] = molecular target: T10, recombinant soluble homotrimeric HA of A/Solomon Islands/3/06 (H1N1) (Influenza A virus A/Solomon Islands/3/2006 (H1N1)); test: HA microarray, BCC supernatant
[12] = molecular target: T11, recombinant homotrimeric HA, A/Wisconsin/67/05 H3N2 (Influenza A virus A/Wisconsin/67/05 (H3N2)); test: trimeric HA microarray; transfection supernatant set 4
[13] = molecular target: recombinant soluble homotrimeric HA, A/Hong Kong/2108/03 (H9N2) (influenza A virus A/Hong Kong/2108/2003 (H9N2)); test: microarray, trimeric HA, transfection supernatant
[14] = molecular target: recombinant soluble homotrimeric HA, A/Hong Kong/1073/99 (H9N2) (influenza A virus A/Hong Kong/1073/99 (H9N2)); test: microarray, trimeric HA, transfection supernatant
[15] = molecular target: recombinant soluble homotrimeric HA, A/northern shoveler/California/HKWF115/2007 (H6N1) (influenza A virus A/northern shoveler/California/HKWF115/2007 (H6N1)); test: microarray, trimeric HA, transfection supernatant
[16] = molecular target: recombinant soluble homotrimeric HA, A/chicken/Vietnam/NCVD-016/08 (H5N1) (influenza A virus A/chicken/Vietnam/NCVD-016/2008 (H5N1)); test: microarray, trimeric HA, transfection supernatant
[17] = molecular target: recombinant homotrimeric HA, A/Japan/305/57 H2N2 (Influenza A virus A/Japan/305/57 (H2N2)); test: trimeric HA microarray; transfection supernatant set 3
[18] = molecular target: recombinant homotrimeric HA, A/Vietnam/1203/04 H5N1 (Influenza A virus A/Vietnam/1203/04 (H5N1)); test: as above
[19] = molecular target: recombinant homotrimeric HA, A/California/4/09 H1N1 (Influenza A virus A/California/4/09 (H1N1)); test: as above
[20] = molecular target: T11, recombinant homotrimeric HA, …; test: as above
[21] = molecular target: recombinant homotrimeric HA, A/South Carolina/1/18 H1N1 (Influenza A virus A/South Carolina/1/18 (H1N1)); test: as above
[22] = molecular target: recombinant homotrimeric HA, A/Solomon Islands/3/06 H1N1 (Influenza A virus A/Solomon Islands/3/06 (H1N1)); test: as above
[23] = molecular target: recombinant homotrimeric HA, A/Hong Kong/1073/99 H9N2 (Influenza A virus A/Hong Kong/1073/99 (H9N2)); test: as above
[24] = molecular target: recombinant homotrimeric HA, A/northern shoveler/California/HKWF115/07 (Influenza A virus A/northern shoveler/California/HKWF115/2007 (H6N1; Table 16 prints H6N4)); test: as above
[25] = molecular target: recombinant homotrimeric HA, A/common magpie/Hong Kong/5052/07 H5N1 (Influenza A virus A/common magpie/Hong Kong/5052/07 (H5N1)); test: as above
[26] = molecular target: recombinant homotrimeric HA, A/chicken/Vietnam/NCVD-016/08 H5N1 (Influenza A virus A/chicken/Vietnam/NCVD-016/08 (H5N1)); test: as above
[27] = molecular target: recombinant homotrimeric HA, A/Indonesia/5/05 H5N1 (Influenza A virus A/Indonesia/5/05 (H5N1)); test: as above
[28] = molecular target: recombinant homotrimeric HA, A/Anhui/1/05 H5N1 (Influenza A virus A/Anhui/1/05 (H5N1)); test: as above
[29] = molecular target: recombinant homotrimeric HA, A/Egypt/3300-NAMRU3/08 H5N1 (Influenza A virus A/Egypt/3300-NAMRU3/08 (H5N1)); test: as above
[30] = molecular target: recombinant soluble homotrimeric HA of A/Netherlands/219/03 (H7N7) (Influenza A virus A/Netherlands/219/03 (H7N7)); test: HA microarray, control mAb
[31] = molecular target: T1, recombinant soluble homotrimeric HA of …; test: HA microarray, control mAb
[32] = molecular target: recombinant soluble homotrimeric HA of A/swine/Ontario/01911-2/99 (H4N6) (Influenza A virus A/Swine/Ontario/01911-2/99 (H4N6)); test: HA microarray, control mAb
[33] = molecular target: T2, recombinant soluble homotrimeric HA of …; test: HA microarray, control mAb
[34] = molecular target: T3, recombinant soluble homotrimeric HA of …; test: HA microarray, control mAb
[35] = molecular target: recombinant soluble homotrimeric HA of A/Hong Kong/2108/03 (H9N2) (Influenza A virus A/Hong Kong/2108/2003 (H9N2)); test: HA microarray, control mAb
[36] = molecular target: T4, recombinant soluble homotrimeric HA of …; test: HA microarray, control mAb
[37] = molecular target: T5, recombinant soluble homotrimeric HA of …; test: HA microarray, control mAb
[38] = molecular target: T6, recombinant soluble homotrimeric HA of …; test: HA microarray, control mAb
[39] = molecular target: T7, recombinant soluble homotrimeric HA of …; test: HA microarray, control mAb
[40] = molecular target: T8, recombinant soluble homotrimeric HA of …; test: HA microarray, control mAb
[41] = molecular target: T9, recombinant soluble homotrimeric HA of …; test: HA microarray, control mAb
[42] = molecular target: T10, recombinant soluble homotrimeric HA of …; test: HA microarray, control mAb
[43] = molecular target: recombinant soluble homotrimeric HA, A/Anhui/1/05 (H5N1) (influenza A virus A/Anhui/1/2005 (H5N1)); test: microarray, trimeric HA, transfection supernatant
[44] = molecular target: recombinant soluble homotrimeric HA, A/Hong Kong/156/97 (H5N1) (influenza A virus A/Hong Kong/156/97 (H5N1)); test: microarray, trimeric HA, transfection supernatant
[45] = molecular target: recombinant soluble homotrimeric HA, A/duck/Yangzhou/02/2005 (H8N4) (influenza A virus A/duck/Yangzhou/02/2005 (H8N4)); test: microarray, trimeric HA, transfection supernatant

B1: TCN-534 (5249_B02) (antibody, V domains shown)
VH: QVQLVQSGAEVKKPGSSVKVSCRESGGTFNGYTITWVRQAPGQGLEWMGGIIPMMGTVNYAQKLQGRVTITTDYFTKTAYMDLNNLRSEDTAMYYCVKIRYTGQQLLWGQGTLVTVSS
VL: DIQMTQSPSTLSASIGDRVTITCRASQSIASWLAWYQQKPGKAPKLLIYEAVNLESGVPSRFSGSGSGTDFTLTISSLQPDDFATYFCQHYGTISQTFGGGTKVEIK
For B1, the Trimeric HA Binding RLU [1] was 41400 RLU, the Trimeric HA Binding RLU [2] was 6860 RLU and the Trimeric HA Binding RLU [3] was 30100 RLU. It also gave a Trimeric HA Binding RLU [4] of 52400 RLU, a Trimeric HA Binding RLU [5] of 7980 RLU and a Trimeric HA Binding RLU [6] of 56600 RLU. The Trimeric HA Binding RLU [7] was 46400 RLU, the Trimeric HA Binding RLU [8] was 3440 RLU and the Trimeric HA Binding RLU [9] was 46500 RLU. The Trimeric HA Binding RLU [10] was 50600 RLU, the Trimeric HA Binding RLU [11] was 44200 RLU and the Trimeric HA Binding: RLU [12] was 897 RLU. For the same binder, the Trimeric HA Binding RLU [13] was 27 RLU, the Trimeric HA Binding RLU [14] was 731 RLU and the Trimeric HA Binding RLU [15] was 21300 RLU. The Trimeric HA Binding RLU [16] was 11400 RLU.

B2: TCN-533 (5256_A17) (antibody, V domains shown)
VH: QVQLVQSGADVKKPGSSVTVSCKASGGSFSNYGINWVRQAPGQGLEWMGGIIPLINAPNYAPKFQGRVTITADMFSNIVSLQLTSLRTDDTAVYYCARRKMTTAIDYWGQGTLVTVSS
VL: QPVLSQPPSASASLGASVTLTCTLSSGFDNYQVAWYQQRPGKGPRFVMRVGNGGNVASKGDGIPDRFSVSGSGLNRYLTIKNIQEDDESDYYCGADHGSGNNFVSPYVFGGGTKLTVL
With B2 the Trimeric HA Binding RLU [1] was 34300 RLU, the Trimeric HA Binding RLU [2] was 8060 RLU and the Trimeric HA Binding RLU [3] was 29300 RLU. The Trimeric HA Binding RLU [4] was 41400 RLU, the Trimeric HA Binding RLU [5] was 13800 RLU and the Trimeric HA Binding RLU [6] was 47700 RLU. The Trimeric HA Binding RLU [7] was 44100 RLU, the Trimeric HA Binding RLU [8] was 5680 RLU and the Trimeric HA Binding RLU [9] was 24700 RLU. The Trimeric HA Binding RLU [10] was 10800 RLU, the Trimeric HA Binding RLU [11] was 39200 RLU and the Trimeric HA Binding: RLU [17] was 18600 RLU. For the same binder, the Trimeric HA Binding: RLU [18] was 11700 RLU, the Trimeric HA Binding: RLU [19] was 6880 RLU and the Trimeric HA Binding: RLU [20] was 16100 RLU. The Trimeric HA Binding: RLU [21] was 16400 RLU, the Trimeric HA Binding: RLU [22] was 15500 RLU and the Trimeric HA Binding: RLU [23] was 23800 RLU. The Trimeric HA Binding: RLU [24] was 7810 RLU, the Trimeric HA Binding: RLU [25] was 25200 RLU and the Trimeric HA Binding: RLU [26] was 24600 RLU. For the same binder, the Trimeric HA Binding: RLU [27] was 28300 RLU, the Trimeric HA Binding: RLU [28] was 301 RLU and the Trimeric HA Binding: RLU [29] was 18600 RLU.

B3: TCN-504 (3251_K17) (antibody, V domains shown)
VH: QVQLQESGPGLVKPSETLSLTCAVSGVSISNIDFYWGWIRQPPGKGLEWIGNIYYTGITFYNPSLSSRVAISIDTSKNQFSLTLTSVTAADTAMYYCARHYGDSEAINDAFDIWGQGTMLTVSS
VL: EIVMTQSPATLSVSPGERATLSCRASQSVGNSLAWYQQRPGQAPRLLIYGASTRATGIPPRFSGSGSGTEFTLTISSLQTEDFAVYYCQQYINWRPLSFGGGTKVEIK
For B3, the Trimeric HA Binding RLU [30] was 47200 RLU, the Trimeric HA Binding RLU [31] was 44400 RLU and the Trimeric HA Binding RLU [32] was 14700 RLU. The Trimeric HA Binding RLU [33] was 26200 RLU, the Trimeric HA Binding RLU [34] was 3330 RLU and the Trimeric HA Binding RLU [35] was 454 RLU. It also gave a Trimeric HA Binding RLU [36] of 40500 RLU, a Trimeric HA Binding RLU [37] of 38500 RLU and a Trimeric HA Binding RLU [38] of 43300 RLU. For the same binder, the Trimeric HA Binding RLU [39] was 196 RLU, the Trimeric HA Binding RLU [40] was 14100 RLU and the Trimeric HA Binding RLU [41] was 4090 RLU. The Trimeric HA Binding RLU [42] was 24100 RLU, the Trimeric HA Binding RLU [43] was 30000 RLU and 14100 RLU and 37200 RLU and the Trimeric HA Binding RLU [44] was 26600 RLU. For the same binder, the Trimeric HA Binding RLU [45] was 19600 RLU and 19900 RLU and 35100 RLU.

— patent publication US20150104459A1
